Source: paper PMC4822818, “An IRF5 Decoy Peptide Reduces Myocardial Inflammation and Fibrosis and Improves Endothelial Cell Function in Tight-Skin Mice” (PLoS ONE, 2016)

Target: T1, Recombinant IRF5 (interferon regulatory factor 5), biotin-labeled (UniProt Q13568 1-498, biotin (EZ-Link NHS-PEG4-Biotin, ratio 1:1))
T1 construct: Interferon regulatory factor 5 (IRF5), recombinant; also called B-IRF5; source: made and purified by Top Gene Technologies (Montreal, Quebec, Canada)
T1 sequence (looked up): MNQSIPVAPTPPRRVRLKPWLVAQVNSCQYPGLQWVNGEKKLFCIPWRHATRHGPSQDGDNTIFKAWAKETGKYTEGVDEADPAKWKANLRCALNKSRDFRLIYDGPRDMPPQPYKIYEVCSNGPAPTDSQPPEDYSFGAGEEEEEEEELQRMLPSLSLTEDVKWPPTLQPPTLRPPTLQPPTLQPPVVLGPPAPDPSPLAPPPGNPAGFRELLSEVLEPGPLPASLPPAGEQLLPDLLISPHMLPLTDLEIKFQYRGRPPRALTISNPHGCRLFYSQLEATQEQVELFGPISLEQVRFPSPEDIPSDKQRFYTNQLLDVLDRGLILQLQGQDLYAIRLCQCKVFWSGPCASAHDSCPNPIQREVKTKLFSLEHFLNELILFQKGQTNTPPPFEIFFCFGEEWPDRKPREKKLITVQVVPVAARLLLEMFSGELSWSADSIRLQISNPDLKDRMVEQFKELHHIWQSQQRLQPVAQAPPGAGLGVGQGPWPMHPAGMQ
Test: BLI; Octet RED; biotin-labeled IRF5 loaded onto streptavidin biosensors in PBS for 15 min; sensors incubated in PBS with increasing concentrations of IRF5D for 10 min; n = 3
Settings: both partners purified

B1: IRF5D (Ac-ELDWDADDIRLQIDNPD-NH2), IRF5 decoy peptide (peptide)
chain: Ac-ELDWDADDIRLQIDNPD-NH2
- Kd: 3.72 µM
